For this assay, the target named is Recombinant HSV-1 glycoprotein B, soluble ectodomain (HSV-1). Description: Luminex binding assay.

B1: BMPC-23 recombinant mouse IgG (antibody, V domains shown)
VH: QVQLQQSGPELVKPGASVKLSCKASGYSFTTYDINWVKERPGQGLEWIGWIYPREGSTNYNEKFRGKATLTADTSSSTAYMELHSLTSEDSAVYFCATYGSSRYYTMDYWGQGTSVTVSS
VL: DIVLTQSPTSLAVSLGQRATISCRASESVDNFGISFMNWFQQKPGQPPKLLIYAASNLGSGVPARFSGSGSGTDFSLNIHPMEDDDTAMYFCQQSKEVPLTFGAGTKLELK
In general, EC50 refers to the concentration giving half of the maximal effect. In the case of B1, the 50% effective concentration (EC50) was 3.5 ng/mL.
